Source: article PMC9150345, “Trimeric complexes of Antp-TBP with TFIIEβ or Exd modulate transcriptional activity” (Hereditas, 2022)

Tests used:
[1] = target: T1, TATA-binding protein (hTBP), fused to the N-terminal fragment of Venus (human, UniProt P20226 1-339); assay: split reporter (BiFC, NanoBiT); BiFC in HEK293 cells co-transfected with VC- and VN- constructs and pCAG-mCherry; read 48 h after transfection; interaction percent = green cells per 100 red cells; settings: partners not purified
T1 construct: also called VNTBP; source: HEK293, transfected, in living cells

[2] = target: T2, hTBPΔQ40, hTBP lacking the Poly-glutamine region (amino acids 50-102), fused to the N-terminal fragment of … (human, UniProt P20226 1-339, lacking the Poly-glutamine region (amino acids 50-102)); assay: as above; settings: partners not purified
T2 construct: made by site-directed mutagenesis; source: HEK293, transfected, in living cells
T2 sequence (looked up): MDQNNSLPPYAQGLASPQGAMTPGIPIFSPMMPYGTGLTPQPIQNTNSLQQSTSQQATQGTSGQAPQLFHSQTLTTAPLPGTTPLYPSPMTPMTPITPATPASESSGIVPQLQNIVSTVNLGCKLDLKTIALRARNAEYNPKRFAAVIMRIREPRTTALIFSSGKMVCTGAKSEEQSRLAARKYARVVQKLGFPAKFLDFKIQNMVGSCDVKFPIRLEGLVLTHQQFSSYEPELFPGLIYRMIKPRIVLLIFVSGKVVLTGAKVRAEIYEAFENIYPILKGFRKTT

B1: AntpQ9, Antp with deletion of the 9-polyQ stretch (amino acids 110-118), fused to the C-terminal fragment of Venus (natural protein)
chain: not shown
notes: Antennapedia (Antp) with deletion of the 9-polyQ stretch (amino acids 110-118); source: HEK293, transfected, in living cells
B1 was tested. Which “percent of transfected cells showing BiFC” value (shortened to “percent”) [1] did it give?
The value was 57%.

B2: AntpΔHD, Antp without the YPWM motif and homeodomain (amino acids 245-363), fused to the C-terminal fragment of Venus (natural protein, Drosophila, UniProt P02833 1-378, looked up)
chain: MTMSTNNCESMTSYFTNSYMGADMHHGHYPGNGVTDLDAQQMHHYSQNANHQGNMPYPRFPPYDRMPYYNGQGMDQQQQHQVYSRPDSPSSQVGGVMPQAQTNGQLGVPQQQQQQQQQPSQNQQQQQAQQAPQQLQQQLPQVTQQVTHPQQQQQQPVVYASCKLQAAVGGLGMVPEGGSPPLVDQMSGHHMNAQMTLPHHMGHPQAQLGYTDVGVPDVTEVHQNHHNMGMYQQQSGVPPVGAPPSGGEGDEITPPNSPQ
notes: Antennapedia (Antp) without the HD (amino acids 245-363); the text calls it the YPWM-HD deletion; source: HEK293, transfected, in living cells
Which “percent” value [1] does the source give for B2 here?
The value was 74%.

B3: AntpΔPolyQ, Antp with deletion of PolyQ regions (amino acids 66-136), fused to the C-terminal fragment of Venus (natural protein)
chain: not shown
notes: Antennapedia (Antp) with deletion of PolyQ regions (amino acids 66-136); source: HEK293, transfected, in living cells
With B3 as the binder, how does the “percent” value [1] read?
The value was 51%.

B4: AntpQ6, Antp with deletion of three glutamines (amino acids 150-152) and substitution of three glutamines to alanines (amino acids 153-155), fused to the … (natural protein)
chain: not shown
notes: Antennapedia (Antp) with deletion of three glutamines (150-152) and three glutamines changed to alanines (153-155); source: HEK293, transfected, in living cells
B4 was tested. Which “percent” value [1] did it give?
The value was 63%.

B5: Antennapedia (Antp), fused to the C-terminal fragment of Venus (natural protein)
chain: not shown
notes: Antennapedia (Antp) Hox protein; also called VCAntp; Antp WT; source: HEK293, transfected, in living cells
How did the “percent” value [2] turn out when B5 was run?
The value was 41%.

What about the “percent” value [1] of the same binder?
The value was 77%.

B6: AntpQ5, Antp with the 5-polyQ stretch mutagenized to alanines (amino acids 123-127), fused to the C-terminal fragment of Venus (natural protein)
chain: not shown
notes: Antennapedia (Antp) in which the 5-polyQ stretch was mutagenized to alanines (amino acids 123-127); source: HEK293, transfected, in living cells
B6 was tested. Which “percent” value [1] did it give?
Its value is 74%.

B7: AntpΔN, Antp lacking the N-terminal region (amino acids 1-269), fused to the C-terminal fragment of Venus (domain or fragment)
chain: not shown
notes: Antennapedia (Antp) lacking the N-terminal region (amino acids 1-269); source: HEK293, transfected, in living cells
Which “percent” value [2] does the source give for B7 here?
The value was 14%.

What about the “percent” value [1] of the same binder?
The value was 51%.
